The source of these data is the supplement of paper PMC9170038.

For the series, the system named is MS2 coat protein. Nature of the series: apparent KD of MS2 coat protein; designed switch direction (-1 OFF switch, 1 ON switch): 1; higher = weaker reporter binding. A digest of the protocol: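 The apparent KD reported per design is the median over clusters of curve fits to normalised cluster fluorescence. The RNA switches were transcribed on Illumina chips by stalled E. coli RNA polymerase. SNAP-549-labelled MS2 coat protein was titrated from 0.7 or 1.5 nM, doubling up to 3 µM, in Tris-HCl pH 7.5 buffer containing KCl, MgCl2, BSA, DTT, tRNA and Tween-20, with no input, 200 uM small-molecule ligand, or an oligonucleotide input.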

Setting [1] is: input ligand: microRNA oligo, concentration not stated.
[2] abbreviates: Eterna round: R95, input ligand: FMN 200 uM.
[3] abbreviates: Eterna round: R95, input ligand: microRNA oligo, concentration not stated.
The mark [4] stands for this setting: Eterna round: R95, input ligand: none.

On to “GUCGGUCUGUCGUGCUGAGGUGAUAGUUAACAUGAGGAUCACCCAUGUUGCUGUCGGGUCGUUGGGAGUUUUCUUCG [Modxample 118 - Jieux - Sensor for bsa-mir-208a] (Eterna round: R96, puzzle: Sensor for hsa-mir-208a)”, for which the “apparent KD of MS2 coat protein” value (input ligand: FMN 200 uM) was 19.1 nM, the “apparent KD of MS2 coat protein” value under setting [1] worked out at 15.4 nM and the “apparent KD of MS2 coat protein” value (input ligand: none) is 22.5 nM.

As to “GUGAAGAAUUAAGGAUAUCGAGUCAAGAUGUUAAACAUGAGGAUCACCCAUGUGGGUUGCGGUAUCGAGAAGGUAAAUUACGGG [salish99_SSNG2_r04_503] (Eterna round: R96, puzzle: Same State NG 2)”, the “apparent KD of MS2 coat protein” value reads like this: (input ligand: FMN 200 uM) 34.6 nM; under setting [1], 27.6 nM; (input ligand: none) 33.2 nM.

Consider “GUGCUACAUGAGGAUCACCCAUGUACAAAUGUACGAGGAUAUGCAUGGGCUAAUGCUGGUGCAGAAGGCGUAGCGC [Pin2Pin #7] (puzzle: Same State 1)”, for which the “apparent KD of MS2 coat protein” value is, setting by setting: under setting [2], 18 nM; under setting [3], 33.9 nM; under setting [4], 41.5 nM.

In the case of “GUGGCGGGUUGAGGAUAUUGGUUGCAUAUGUUUAACAUGAGGAUCACCCAUGUGGGUUGCGGUUUCGAGAAGGUAGGUUGCUGG [salish99_SSNG2_r04_044] (Eterna round: R96, puzzle: Same State NG 2)”, the “apparent KD of MS2 coat protein” value (input ligand: FMN 200 uM) was found to be 155 nM, the “apparent KD of MS2 coat protein” value under setting [1] worked out at 95.3 nM and the “apparent KD of MS2 coat protein” value (input ligand: none) was found to be 140 nM.

Consider “GUGGUCAGACAUGAGGAUCACCCAUGUGGAAUAAAUAACACACAGGAUAUCCAAUAUAAAAUAUAGGAGAAGGGUGGAUUGGUG (Eterna round: R96, puzzle: Same State NG 3)”, for which the “apparent KD of MS2 coat protein” value under setting [1] was determined as 176 nM.

For the sequence “GUGGUCAGACAUGAGGAUCACCCAUGUGGAAUAAAUAACAGACAGGAUAUGUAAUAUAGGAUAUAACAGAAGGGUCGAUUGGUG (Eterna round: R96, puzzle: Same State NG 3)”, the “apparent KD of MS2 coat protein” value under setting [1] was found to be 64.4 nM.

On to “GUGGUCAGACAUGAGGAUCACCCAUGUGGAAUAAAUAACAGACAGGAUAUUAAAUAUAGGAUAUAUAAGAAGGGUCGAUUGGUG (Eterna round: R96, puzzle: Same State NG 3)”, for which the “apparent KD of MS2 coat protein” value under setting [1] amounted to 78.5 nM.

With “GUGGUCAGACAUGAGGAUCACCCAUGUGGAAUAAAUAACGGUGAGGAUAUUGAAUAUAGGAUAUACGAGAAGGCAUGAUUGGUG (Eterna round: R96, puzzle: Same State NG 3)”, the “apparent KD of MS2 coat protein” value runs as follows: (input ligand: FMN 200 uM) 208 nM; under setting [1], 114 nM; (input ligand: none) 123 nM.

Regarding “GUGGUCAGACAUGAGGAUCACCCAUGUGGAAUAAAUAAGGGACAGGAUAUCCAAUAUAGGAUAUAGGAGAAGGGUUGGUUGGUG (Eterna round: R96, puzzle: Same State NG 3)”, the “apparent KD of MS2 coat protein” value reads like this: (input ligand: FMN 200 uM) 78.9 nM; under setting [1], 64.5 nM; (input ligand: none) 73.9 nM.

“GUGGUCAGACAUGAGGAUCACCCAUGUGGAAUAAAUAAGGGAGAGGAUAUAUAAUAUAGGAUAUAAUAGAAGGCUCGGUUGGUG (Eterna round: R96, puzzle: Same State NG 3)”: the “apparent KD of MS2 coat protein” value under setting [1] turned out to be 89.5 nM.

With “GUGGUCAGACAUGAGGAUCACCCAUGUGGAAUAAAUAAGGUCAAGGAUAUUGAAUAUAGGAUAUACAAGAAGGUGAGGUUGGUG (Eterna round: R96, puzzle: Same State NG 3)”, the “apparent KD of MS2 coat protein” value (input ligand: FMN 200 uM) worked out at 140 nM, the “apparent KD of MS2 coat protein” value under setting [1] turned out to be 94.9 nM and the “apparent KD of MS2 coat protein” value (input ligand: none) was found to be 115 nM.

As for “GUGGUGAAUUAAGGAUAUCGAGUCUAGAUGUUAAACAUGAGGAUCACCCAUGUGGGUUGCGGUGUCGAGAAGGUGAUUUACGGG [salish99_SSNG2_r04_509] (Eterna round: R96, puzzle: Same State NG 2)”, the “apparent KD of MS2 coat protein” value came out at 82.2 nM (input ligand: FMN 200 uM), 79.6 nM under setting [1] and 104 nM (input ligand: none).

Take “GUUAAACAUGAGGAUCACCCAUGUAAUAUAAUGGGAGGAUAUCUGAAUUAAUUAAAUUAAGGAGAAGGCCUAAUGG [Mat - Same State 1 - Mod of Eli - D51] (puzzle: Same State 1)”: the “apparent KD of MS2 coat protein” value is 83.3 nM under setting [2], 481 nM under setting [3] and 608 nM under setting [4].

Turning to “GUUACAUGAGGAUCACCCAUGUAUGUGUGGGAGUAAGUGACUUAGGAUAUCUAAUAUUUAAAUUAAGAGAAGGAAGAUUGUUGU [JMF's solution 5] (Eterna round: R96, puzzle: Same State NG 3)”, the “apparent KD of MS2 coat protein” value reads like this: (input ligand: FMN 200 uM) 266 nM; under setting [1], 131 nM; (input ligand: none) 202 nM.

Regarding “GUUACAUGAGGAUCACCCAUGUAUGUGUGGGAGUAAGUGUCUUAGGAUAUCUAUCAUUUAAGUUAAGAGAAGGAAGAUUGUUGU [JMF's solution 95] (Eterna round: R96, puzzle: Same State NG 3)”, the “apparent KD of MS2 coat protein” value (input ligand: FMN 200 uM) was found to be 135 nM, the “apparent KD of MS2 coat protein” value under setting [1] stood at 80.4 nM and the “apparent KD of MS2 coat protein” value (input ligand: none) was 108 nM.

On to “GUUACAUGAGGAUCACCCAUGUAUGUGUGGGAGUAAGUGUCUUAGGAUAUCUAUCAUUUAAUUGAAGAGAAGGAAGAUUGUUGU [JMF's solution 99] (Eterna round: R96, puzzle: Same State NG 3)”, for which the “apparent KD of MS2 coat protein” value worked out at 140 nM (input ligand: FMN 200 uM), 71.2 nM under setting [1] and 113 nM (input ligand: none).

With “GUUAGGAAUCUAGCACACAUGAGGAUCACCCAUGUUAGUGGGAAGGAUAUGGUACAGAAACUGUACCAGAAGGUCUUAUUGUUU [Omei SS(NG) 3 AV14] (Eterna round: R96, puzzle: Same State NG 3)”, the “apparent KD of MS2 coat protein” value by setting is: (input ligand: FMN 200 uM) 93.8 nM; under setting [1], 67.6 nM; (input ligand: none) 142 nM.

As to “GUUUGACAUGAGGAUCACCCAUGUCAUACGGACACAGGAUAUCGUGGCCUGAAGCCGUCAUGAGAAGGGUGACCAA [Ceaza] (puzzle: Same State 1)”, the “apparent KD of MS2 coat protein” value is, setting by setting: under setting [2], 33.8 nM; under setting [3], 14.3 nM; under setting [4], 12.5 nM.

Turning to “UAAAUACAUGAGGAUCACCCAUGUCAAAAGACAUGAGGAUAUGUACAGUCUUCGGUCUGUACAGAAGGCAUGAAUA [salish99_ss1_r3_097] (Eterna round: R96, puzzle: Same State 1)”, the “apparent KD of MS2 coat protein” value by setting is: (input ligand: FMN 200 uM) 52.1 nM; under setting [1], 370 nM; (input ligand: none) 461 nM.

Turning to “UAAAUACAUGAGGAUCACCCAUGUCAAAAGACAUGAGGAUAUGUACAGUCUUCGGUCUGUACAGAAGGCAUGAAUA [salish99_ss1_r3_097] (puzzle: Same State 1)”, the “apparent KD of MS2 coat protein” value under setting [3] worked out at 434 nM.

For the sequence “UACGCGAGAGGAGGAUAUGCAGAGGAUCACCCUGUAGAAGGCCUCAUAAGGAGGAUAUGCAGAGGAUCACCCUGUAGAAGGCCU [pwkr ssNG DX.22] (Eterna round: R96, puzzle: Same State NG 1)”, the “apparent KD of MS2 coat protein” value runs as follows: (input ligand: FMN 200 uM) 345 nM; under setting [1], 67.9 nM; (input ligand: none) 129 nM.

As to “UACUGAGUCGUAGGAUAUGUAGGAUAUGGCGAGAGCUAAGCUUGGAAGUCACUUCUGCCAGAAGGACAGAAGGACGACUCUCUC [pwkr ssNG2 2FMN + F9.14] (Eterna round: R96, puzzle: Same State NG 2)”, the “apparent KD of MS2 coat protein” value runs as follows: (input ligand: FMN 200 uM) 705 nM; under setting [1], 237 nM; (input ligand: none) 55.5 nM.

For the sequence “UACUUGGUGGUAGGAUAUGUAGGAUAUGGCGAGAGCUAAGCUUGGAAGUCACUUCAGCCAGAAGGACAGAAGGACCAGUAUCUC [pwkr ssNG2 2FMN + F9.11] (Eterna round: R96, puzzle: Same State NG 2)”, the “apparent KD of MS2 coat protein” value runs as follows: (input ligand: FMN 200 uM) 1450 nM; under setting [1], 11.5 nM; (input ligand: none) 81.6 nM.

For the sequence “UAGAAACAUGAGGAUCACCCAUGUGGGUUAAACACAGGAUAUCACACCAAACGAAAGGCGUGAGAAGGGUGACCGU [Xeonreais] (puzzle: Same State 1)”, the “apparent KD of MS2 coat protein” value by setting is: under setting [2], 62 nM; under setting [3], 41.2 nM; under setting [4], 39.1 nM.

Turning to “UAGAUUCACGUAGGAUAUCGACCUACAUGAGGAUCACCCAUGUUUUUGAAUAGAUUUUUUAGUUACGAGAAGGACGUUAUGUAU [JR_SSNG2_Sub063] (Eterna round: R96, puzzle: Same State NG 2)”, the “apparent KD of MS2 coat protein” value (input ligand: FMN 200 uM) is 96 nM, the “apparent KD of MS2 coat protein” value under setting [1] came to 210 nM and the “apparent KD of MS2 coat protein” value (input ligand: none) came out at 473 nM.

Consider “UAUGAAUUGCAAGGAUAUUGAUAACAUGAGGAUCACCCAUGUAAUUGUUCGAGUUAGAUUAGUUACAAGAAGGUGCUAUUGUUU [JR_SSNG2_Sub038] (Eterna round: R96, puzzle: Same State NG 2)”, for which the “apparent KD of MS2 coat protein” value is, setting by setting: (input ligand: FMN 200 uM) 350 nM; under setting [1], 459 nM; (input ligand: none) 337 nM.

In the case of “UAUUUAAUCGUAGGAUAUAGAGUGAAAUUUGGACUAGAAGGACGUAACAUGAGGAUCACCCAUGUGGUAAGUGGGACACAGUGU [JR_SSNG1_Sub038] (Eterna round: R96, puzzle: Same State NG 1)”, the “apparent KD of MS2 coat protein” value was found to be 150 nM (input ligand: FMN 200 uM), 66.8 nM under setting [1] and 90.5 nM (input ligand: none).

With “UCAAGCGCACAUGAGGAUCACCCAUGUACCGAGAGUCGUCGUCGGAGAAUGAUGCAUGCUGCUGCUAUUCCACAUUA [Default title] (puzzle: Sensor for hsa-mir-208a version 2)”, the “apparent KD of MS2 coat protein” value was determined as 89.5 nM under setting [2], 66.8 nM under setting [3] and 85.3 nM under setting [4].

Regarding “UCUAGACAUGAGGAUCACCCAUGUCAAUAUGACACAGGAUAUCGGUACUCAUAGAGUACGCGAGAAGGGUGACUUC [Same State 1 - Mod of Vinnie Gere v.4] (puzzle: Same State 1)”, the “apparent KD of MS2 coat protein” value was 137 nM under setting [2], 45.5 nM under setting [3] and 52.6 nM under setting [4].
